Source: IntAct's records for PubMed 29039417

B1: BBSome complex member BBS2 (Homo sapiens), Q9BXC9 (parent)
chain: MLLPVFTLKLRHKISPRMVAIGRYDGTHPCLAAATQTGKVFIHNPHTRNQHVSASRVFQSPLESDVSLLSINQAVSCLTAGVLNPELGYDALLVGTQTNLLAYDVYNNSDLFYREVADGANAIVLGTLGDISSPLAIIGGNCALQGFNHEGSDLFWTVTGDNVNSLALCDFDGDGKKELLVGSEDFDIRVFKEDEIVAEMTETEIVTSLCPMYGSRFGYALSNGTVGVYDKTSRYWRIKSKNHAMSIHAFDLNSDGVNELITGWSNGKVDARSDRTGEVIFKDNFSSAIAGVVEGDYRMDGHIQLICCSVDGEIRGYLPGTAEMRGNLMDTSAEQDLIRELSQKKQNLLLELRNYEENAKAELASPLNEADGHRGIIPANTRLHTTLSVSLGNETQTAHTELRISTSNDTIIRAVLIFAEGIFTGESHVVHPSIHNLSSSICIPIVPPKDVPVDLHLKAFVGYRSSTQFHVFESTRQLPRFSMYALTSLDPASEPISYVNFTIAERAQRVVVWLGQNFLLPEDTHIQNAPFQVCFTSLRNGGHLHIKIKLSGEITINTDDIDLAGDIIQSMASFFAIEDLQVEADFPVYFEELRKVLVKVDEYHSVHQKLSADMADHSNLIRSLLVGAEDARLMRDMKTMKSRYMELYDLNRDLLNGYKIRCNNHTELLGNLKAVNQAIQRAGRLRVGKPKNQVITACRDAIRSNNINTLFKIMRVGTASS
partner: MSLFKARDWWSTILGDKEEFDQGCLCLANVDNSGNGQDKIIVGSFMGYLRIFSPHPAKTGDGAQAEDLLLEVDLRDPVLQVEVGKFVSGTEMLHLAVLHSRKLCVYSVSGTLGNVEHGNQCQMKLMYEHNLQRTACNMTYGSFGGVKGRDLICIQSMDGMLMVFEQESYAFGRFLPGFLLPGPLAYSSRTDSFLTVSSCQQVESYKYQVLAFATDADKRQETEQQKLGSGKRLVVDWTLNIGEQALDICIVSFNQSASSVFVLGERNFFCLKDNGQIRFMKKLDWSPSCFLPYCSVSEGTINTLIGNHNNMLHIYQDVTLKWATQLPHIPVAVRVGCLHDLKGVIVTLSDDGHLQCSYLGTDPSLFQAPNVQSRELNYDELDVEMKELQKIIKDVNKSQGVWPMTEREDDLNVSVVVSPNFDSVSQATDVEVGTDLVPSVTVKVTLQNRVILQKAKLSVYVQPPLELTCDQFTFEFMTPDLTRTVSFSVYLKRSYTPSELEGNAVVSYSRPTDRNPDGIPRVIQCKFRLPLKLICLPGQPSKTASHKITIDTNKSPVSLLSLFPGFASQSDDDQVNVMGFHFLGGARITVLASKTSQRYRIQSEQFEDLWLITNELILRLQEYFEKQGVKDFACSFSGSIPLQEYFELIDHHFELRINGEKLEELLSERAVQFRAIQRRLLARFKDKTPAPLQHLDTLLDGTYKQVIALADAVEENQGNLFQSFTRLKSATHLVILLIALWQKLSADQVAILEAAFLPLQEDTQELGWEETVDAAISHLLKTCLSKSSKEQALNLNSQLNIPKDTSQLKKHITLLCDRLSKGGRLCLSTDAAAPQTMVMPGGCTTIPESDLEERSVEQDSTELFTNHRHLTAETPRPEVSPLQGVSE

Variants of: B1
Conditions: with pthb1_human BBS9, Q3SYG4

Effect of a mutation on the interaction, with no effect:
Y603E
Y603K
Y603A
E591K
E591A
S573K
S573A
S573E
H617A
H617E
H617K
L633A
L633K
L633E
F590A
F590K
F590E
K599E
K599A
V582E
V582A
V582K
L580K
L580E
L580A
A628K
A628E
E592K
E592A
L625A
L625E
L625K
A572E
A572K
H604K
H604E
H604A
V596K
V596E
V596A
E629K
E629A
L597E
L597K
L597A
P587E
P587K
P587A
D601E
D601A
D601K
S618A
S618K
S618E
L620K
L620A
L620E
L593K
L593E
L593A
V600A
V600K
V600E
D630K
D630E
D630A
E583A
E583K
V626E
V626K
V626A
I621K
I621A
I621E
F575E
F575A
F575K
G627K
G627A
G627E
V598E
V598A
V598K
L624A
L624K
L624E
D613A
D613E
D613K
A615E
A615K
Y589A
Y589K
